Here are results for 26 molecules from patent US5679639.

Read-outs that look alike come from different tables or passages of the source. No end group written: not given here.

In assay [1] the target is human activated Factor X (Xa) (human).
Assay [2] shares this target. The source holds these as a separate data set.
In assay [3] the target is Factor Va (activated Factor V).
For assay [4], the target named is activated protein C (APC) (human).
The target in assay [5] is Factor Va (activated Factor V). This is another data set of the same source.
Assay [6] concerns the target Factor IXa (Homo sapiens (Human)).
The target is the same in assay [7]. Also on record: unit not given beside the values.
Assay [8] addresses human activated Factor X (Xa) (human). This is another data set of the same source.
Assay [9] has as its target activated protein C (APC) (human). The source holds these as a separate data set.
For assay [10] the target is unchanged. The source holds these as a separate data set.
Assay [11] has the same target. The source holds these as a separate data set.
The target in assay [12] is Factor Va (activated Factor V). The source holds these as a separate data set.
Assay [13] addresses Factor Va (activated Factor V). This is another data set of the same source.
The target in assay [14] is activated protein C (APC) (human). This is another data set of the same source.
The target of assay [15] is Factor Va (activated Factor V). The source holds these as a separate data set.

As to synthetic peptide PT557-571, the IC50, Factor Xa-1 stage clotting assay in assay [1] was determined as 50 µM. Also, in assay [2], the IC50, prothrombinase assay in the absence of Factor Va was 80 µM and the IC50, prothrombinase assay in the presence of Factor Va was 40 µM.

synthetic peptide PT473-487 showed an IC50, Factor Xa-1 stage clotting assay in assay [1] of 25 µM. Moreover, the IC50, prothrombinase assay in the presence of Factor Va (1 nM Xa, 0.4 nM Va, 1.2 uM prothrombin) in assay [3] stood at 10 µM.

Consider synthetic peptide PC65-79, for which, in assay [4], the Inhibition of APC (%), Xa-1 stage coagulation assay in NHP, 500 µM peptide came to 0%.

Consider synthetic peptide PC48-62, for which, in assay [4], the Inhibition of APC (%), Xa-1 stage coagulation assay in NHP, 500 µM peptide came out at 0%.

The molecule synthetic peptide PT463-478 returned an IC50, Factor Xa-1 stage clotting assay in assay [1] greater than 500 µM.

activated protein C (APC) (enzyme) displayed a rate of Factor Va inactivation (% Vi/min), 5 nM APC and 40 nM Va, no phospholipids in [5] of 4 % Vi/min.

In turn, synthetic peptide PC110-124 had an Inhibition of APC (%), Xa-1 stage coagulation assay in NHP, 500 µM peptide in assay [4] of 0%.

ARKGKYGIYTKVTAF-NH2 [synthetic peptide X404-418] displayed an IC50, Factor Xa-1 stage clotting assay in assay [1] of 50 µM. The IC50, tenase assay in the presence of VIIIa in assay [6] was 150 µM. The molecule also gave an IC50, Factor IXa-1 stage clotting assay in [7] of 50. Further, in [3], the IC50, prothrombinase assay in the presence of Factor Va (1 nM Xa, 0.4 nM Va, 1.2 uM prothrombin) worked out at 75 µM.

DTLAFWSKHVDGDQC-NH2 (also: native Cys substituted by Ser or Gly, which position not given here) [synthetic peptide PC36-50] gave an Inhibition of APC (%), Xa-1 stage coagulation assay in NHP, 500 µM peptide in [4] of 0%.

KRNRTFVLNFIKIPV-NH2 [synthetic peptide PC311-325] came in with a Factor Xa clotting activity in NHP (0.15 nM factor Xa) in assay [8] of 7 µM. The molecule also registered a 50% inhibition of APC anticoagulant activity in APTT and Xa-1-stage assays in NHP and PSDP in assay [9] of 7 to 20 µM. Moreover, in assay [10], the APC amidolytic activity towards S-2366, change in A405/5 minutes (none: 0.374) (A405/5 minutes) is 0.342. Moreover, in assay [5], the APC-catalyzed inactivation of Factor Va in the absence of phospholipids turned out to be 87% and the half-maximal inhibition of the APC-catalyzed inactivation of Factor Va, with phospholipid vesicles is 6 µM. Besides, the IC90** (concentration of peptide that inhibits 90% of APC anticoagulant activity), mean of APTT and Xa-1 stage coagulation assays in NHP in [11] came out at 50 µM. The prothrombinase activity in the presence of Factor Va (1 nM Xa, 0.4 nM Va, 1.2 µM prothrombin) in assay [12] came out at 8 µM.

In turn, APGYKLGDDLLQCHP-NH2 (also: native Cys substituted by Ser or Gly, which position not given here) [synthetic peptide PC121-135] gave an Inhibition of APC (%), Xa-1 stage coagulation assay in NHP, 500 µM peptide in [4] of 0%.

In assay [8], MHKLREGKWRPKSR-NH2 [scrambled peptide with a randomized sequence of residues 142-155] yielded a Factor Xa clotting activity in NHP (0.15 nM factor Xa) of 37%. In assay [10], the APC amidolytic activity towards S-2366, change in A405/5 minutes (none: 0.374) (A405/5 minutes) is 0.364. Besides, the prothrombinase activity in the presence of Factor Va in assay [13] is 40%.

In turn, VLNFIKIPVVPHNEC-NH2 [synthetic peptide PC317-331] registered an IC90** (concentration of peptide that inhibits 90% of APC anticoagulant activity), mean of APTT and Xa-1 stage coagulation assays in NHP in assay [11] of 500 µM.

Take GRPWKRMEKKRSHLC-NH2 [synthetic peptide PC142-155 with an additional carboxy-terminal cysteine]: in assay [8], the Factor Xa clotting activity in NHP (0.15 nM factor Xa) amounted to 10 µM. This molecule showed an APC amidolytic activity towards S-2366, change in A405/5 minutes (none: 0.374) (A405/5 minutes) in [10] of 0.344. Moreover, in assay [14], the 50% inhibition of APC anticoagulant activity, Xa-1-stage coagulation assay in NHP turned out to be 25 µM and the 50% inhibition of APC anticoagulant activity, Xa-1-stage coagulation assay in protein S-depleted plasma came out at 5 µM. Further, the Inhibition of APC (%), Xa-1 stage coagulation assay in NHP, 500 µM peptide in assay [4] was 80%. Moreover, the prothrombinase activity in the presence of Factor Va in assay [12] came out at 40 µM. In assay [15], this molecule came in with an APC-catalyzed inactivation of Factor Va in the absence of phospholipids of 87% and a half-maximal inhibition of the APC-catalyzed inactivation of Factor Va, with phospholipid vesicles of 50 µM.

HPAVKFPCGRPWKRM-NH2 (also: native Cys substituted by Ser or Gly, which position not given here) [synthetic peptide PC134-148] had a 50% inhibition of APC anticoagulant activity, Xa-1-stage assay in NHP in [14] of 250 µM. The Inhibition of APC (%), Xa-1 stage coagulation assay in NHP, 500 µM peptide in [4] came to 66%.

KLGDDLLQCHPAVKF-NH2 (also: native Cys substituted by Ser or Gly, which position not given here) [synthetic peptide PC125-139] yielded an Inhibition of APC (%), Xa-1 stage coagulation assay in NHP, 500 µM peptide in [4] of 30%.

Consider LVLQYLRVPLVDRAT-NH2 [synthetic peptide IX321-335], for which the IC50, tenase assay in the presence of Factor VIIIa in assay [6] was 100 to 140 µM. In assay [7], this molecule displayed an IC50, Factor IXa-1 stage clotting assay of 30.

On to QVVNLPIVERPVSKD-NH2 (not fully specified) [synthetic peptide PT481-495], for which, in [1], the IC50, Factor Xa-1 stage clotting assay is greater than 500 µM.

Regarding VKFTIRVFNPRNLKI-NH2 [control peptide with a randomized sequence of residues 311-325], in assay [8], the Factor Xa clotting activity in NHP (0.15 nM factor Xa) is 30%.

In turn, EKGRQSTRLKMLEVPY-NH2 [synthetic peptide X329-344] displayed an IC50, Factor Xa-1 stage clotting assay in assay [1] of 500 µM.

As for YGIYTKVSRYVNWIK-NH2 [synthetic peptide IX395-409], in assay [6], the IC50, tenase assay (Factor Xa generation) in the presence of Factor VIIIa stood at 6 µM and the IC50, tenase assay in the absence of VIIIa lay within 40 to 60 µM. In assay [7], this molecule showed an IC50, Factor IXa-1 stage clotting assay of 25.

Consider KVSRYVNWIKEKTKL-NH2 [synthetic peptide IX400-414], for which, in assay [6], the IC50, tenase assay in the presence of Factor VIIIa lay within 100 to 140 µM. In assay [7], the IC50, Factor IXa-1 stage clotting assay was determined as 50.

VTAFLKWIDRSMKTR-NH2 [synthetic peptide X415-429] registered an IC50, Factor Xa-1 stage clotting assay in [1] of 115 µM. In addition, the IC50, tenase assay in the presence of VIIIa in [6] amounted to 45 µM. In assay [7], this molecule yielded an IC50, Factor IXa-1 stage clotting assay of 0. This molecule returned an IC50, prothrombinase assay with or without Factor Va in assay [2] of 500 µM.

Consider RSGWEGRFCQREVSF-NH2 (also: native Cys substituted by Ser or Gly, which position not given here) [synthetic peptide PC81-95], for which the Inhibition of APC (%), Xa-1 stage coagulation assay in NHP, 500 µM peptide in assay [4] is 40%.

KHVDGDQCLVLPLEH-NH2 (also: native Cys substituted by Ser or Gly, which position not given here) [synthetic peptide PC43-57] yielded an Inhibition of APC (%), Xa-1 stage coagulation assay in NHP, 500 µM peptide in assay [4] of 0%.

For HKGRSALVLQYLRVPL-NH2 [synthetic peptide IX315-330], in assay [6], the IC50, tenase assay (Factor Xa generation) in the presence of Factor VIIIa is 2 µM and the IC50, tenase assay in the absence of VIIIa was in the range of 40 to 60 µM. The molecule also displayed an IC50, Factor IXa-1 stage clotting assay in assay [7] of 30.
